Columns and labels:
[1] = biological target: T1, Human ROR1-ECD-his (Acro Biosystems RO1-H522y) (human, UniProt Q01973 30-406); assay: ELISA, coated hu-ROR1-ECD-his
T1 construct: extracellular domain; bought protein; also called hROR1-ECD-his; hu-ROR1-ECD-his

[2] = biological target: T2, human ROR1 on cells (HEK293T-hROR1, PANC-1, A549) (human, UniProt Q01973 30-937); assay: flow cytometry, HEK293T-hROR1 cells; HEK293T-hROR1 cells (ROR1 overexpressed), FACS: binds
T2 construct: whole, on cells; one molecule for the three cell lines; also called huROR1; cell surface ROR1
Experimental: (§1) In brief, anti-ROR1 antibodies were serially diluted in staining buffer (PBS containing 2% FBS). Antibody solution was incubated with 1×10⁵ cells at 4° C. for 1 hour. […] After 1-hour incubation at 4° C., cells were washed twice with staining buffer and subjected to flow cytometry. PR000374 (Bench marker 1) and non-relevant IgG isotype control (Crownbio) were used as positive and negative controls, respectively.

[3] = biological target: T3, hu-ROR2-ECD-his (Acrobiosystems RO2-H52E5) (human, UniProt Q01974 34-403); assay: ELISA, plate coated with hu-ROR2-his at 1 µg/mL
T3 construct: extracellular domain; bought protein; also called Human ROR2 his-tagged protein; Human ROR2, His Tag
Method in brief: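 Plates were coated overnight at 4 °C with 1 μg/mL human ROR2-ECD-his and blocked with 2% BSA. Serially diluted anti-ROR1 antibodies were bound for 1 h at 37 °C, then secondary antibody for 1 h at 37 °C. Detection was by TMB (~5 min), stopped with H2SO4, and read at 450/570 nm.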

[4] = biological target: T4, cynomolgus ROR1 on CHO-K1-cynoROR1 cells (cynomolgus monkey, UniProt A0A2K5WTX7 30-937); assay: flow cytometry, CHO-K1-cynoROR1 cells
T4 construct: whole, on cells
Experimental: as §1

[5] = biological target: T1, Human ROR1-ECD-his (Acro Biosystems …); assay: BLI, ROR1-His on HIS1K sensor, antibody in solution
Method in brief: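 His-tagged ROR1 (20 nM) captured on HIS1K biosensors; serially diluted antibodies in kinetics buffer as analyte. Association and dissociation rate constants measured by Octet biolayer interferometry, sensors regenerated with 10 mM glycine-HCl pH 1.5 between cycles.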

T1 sequence (Q01973 30-406): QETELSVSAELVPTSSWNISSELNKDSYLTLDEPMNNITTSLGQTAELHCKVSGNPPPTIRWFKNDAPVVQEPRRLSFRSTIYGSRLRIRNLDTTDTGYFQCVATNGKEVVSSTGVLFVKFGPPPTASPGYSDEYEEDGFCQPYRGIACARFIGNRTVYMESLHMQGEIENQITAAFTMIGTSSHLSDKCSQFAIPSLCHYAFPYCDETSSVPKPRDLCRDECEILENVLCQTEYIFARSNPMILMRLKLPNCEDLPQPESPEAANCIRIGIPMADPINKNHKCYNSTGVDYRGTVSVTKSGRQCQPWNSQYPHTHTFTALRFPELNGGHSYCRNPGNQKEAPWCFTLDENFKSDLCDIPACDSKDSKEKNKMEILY
T2 sequence (Q01973 30-937): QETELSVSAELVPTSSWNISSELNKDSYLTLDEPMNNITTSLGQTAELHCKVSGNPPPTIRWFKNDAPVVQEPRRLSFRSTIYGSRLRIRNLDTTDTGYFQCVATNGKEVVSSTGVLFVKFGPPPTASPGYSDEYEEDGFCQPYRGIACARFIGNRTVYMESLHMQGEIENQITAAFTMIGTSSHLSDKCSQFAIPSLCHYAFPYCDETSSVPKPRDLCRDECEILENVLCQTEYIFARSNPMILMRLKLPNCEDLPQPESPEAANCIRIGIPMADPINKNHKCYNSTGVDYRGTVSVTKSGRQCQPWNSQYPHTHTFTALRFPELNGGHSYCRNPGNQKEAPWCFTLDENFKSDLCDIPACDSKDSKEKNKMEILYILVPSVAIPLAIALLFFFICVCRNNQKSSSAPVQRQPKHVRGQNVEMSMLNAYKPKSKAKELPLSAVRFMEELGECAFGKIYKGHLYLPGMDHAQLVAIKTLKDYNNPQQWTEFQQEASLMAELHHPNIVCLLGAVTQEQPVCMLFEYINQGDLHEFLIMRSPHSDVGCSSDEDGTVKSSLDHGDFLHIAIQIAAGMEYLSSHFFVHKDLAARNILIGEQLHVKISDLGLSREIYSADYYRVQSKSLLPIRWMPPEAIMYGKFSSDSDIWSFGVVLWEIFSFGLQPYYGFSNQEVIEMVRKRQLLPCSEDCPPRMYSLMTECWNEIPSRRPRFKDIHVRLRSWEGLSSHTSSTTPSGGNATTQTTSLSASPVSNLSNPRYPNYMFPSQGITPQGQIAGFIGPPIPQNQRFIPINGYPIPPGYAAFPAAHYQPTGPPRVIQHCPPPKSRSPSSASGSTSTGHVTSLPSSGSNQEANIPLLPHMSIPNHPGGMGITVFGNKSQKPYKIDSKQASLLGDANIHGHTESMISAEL
T3 sequence (Q01974 34-403): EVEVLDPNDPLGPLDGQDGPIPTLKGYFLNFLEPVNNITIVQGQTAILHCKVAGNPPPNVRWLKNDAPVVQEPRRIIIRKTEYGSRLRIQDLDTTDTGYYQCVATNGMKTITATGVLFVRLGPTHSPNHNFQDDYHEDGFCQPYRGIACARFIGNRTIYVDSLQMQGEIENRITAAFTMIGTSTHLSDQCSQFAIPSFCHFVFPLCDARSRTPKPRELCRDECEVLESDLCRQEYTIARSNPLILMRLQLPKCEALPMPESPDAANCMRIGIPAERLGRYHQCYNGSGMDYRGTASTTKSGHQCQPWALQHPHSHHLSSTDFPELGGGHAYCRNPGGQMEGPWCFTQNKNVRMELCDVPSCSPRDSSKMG

B1: PR303189 (antibody, human IgG1, V domains shown)
VH: EVQLVESGGGLVKPGGSLRLSCAASGFNLSDSYMSWIRQAPGKGLEWVSCISSSGSTIYYADSVKGRFTVSRDNAKNSLYLQMNHLRAEDTALYYCARDCVIGIRDDSDIWGQGTMVTVSS
notes: HCAb (heavy chain-only, human IgG1 Fc), no light chain
EC50 [1]: 0.002 µg/mL | EC50 [2]: 0.085 µg/mL | binding result [3]: no binding (tested: about 15 µg/ml) | EC50 [4]: 7.53 µg/mL | MAX(MFI) [4]: 5.3e+06 MFI | Kd [5]: 0.623 nM | koff [5]: 0.00403 s⁻¹ | kon [5]: 6.46e+06 M⁻¹ s⁻¹
